Source: patent US7358088B2, “Peptides and compositions which modulate apoptosis” (ImmunoGen, Inc., priority 1995, dated 2008)

Assays:
[1] = target: T1, Bcl-xL/Bak GD domain interaction (Homo sapiens, UniProt Q07817); assay: High through-put screening assay 2: GST-Bcl-xL binding to biotinylated Bak GD peptide on neutravidin wells, ELISA; conditions: competing peptide added, ELISA signal
T1 construct: made in house; host or cells: E. coli
Procedure: An assay was developed to screen for compounds that block the interaction between the Bcl-2 homologs, Bcl-xL and Bak. A synthetic peptide corresponding to the Bak GD binding domain ([…] [SEQ ID NO: 35]) was biotinylated and bound to wells coated with neutravidin. […] Peptides encompassing the GD domain from various Bcl-2 family members were tested for their ability to block GD domain-mediated interactions in this assay. Peptides tested: Bcl-w [SEQ ID NO: 39] […] ([…]), Bak [SEQ ID NO: 36]([…]), Bak-15 [SEQ ID NO: 37] ([…]), Bak-15L78A [SEQ ID NO: 38] ([…]), control (no peptide).
In a modification of the high through-put screening assay 1 described herein, wells are coated with an avidin derivative, to which a biotinylated peptide/protein is bound. A GST-fusion protein that can interact with the biotinylated peptide/protein is added in the presence or absence of test compounds. The plates are incubated and then unbound GST-fusion protein is removed by washing. The amount of GST-fusion protein specifically bound to the tethered peptide/protein is determined by ELISA using an anti-GST antibody conjugated to horse radish peroxidase. Compounds which block the interaction between the biotinylated peptide/protein and the GST-fusion protein cause a decrease in the ELISA signal.
In a specific example, an assay was developed to screen for compounds that block the interaction between the Bcl-2 homologs, Bcl-xL and Bak. A biotinylated Bak GD domain peptide (amino acid residues 71-89; N-biotinylated […] [SEQ ID NO: 35]) was bound to wells coated with neutravidin. […] Using this assay, peptides from Bcl-2 family members were identified which block the Bcl-xL/Bak GD domain interaction (FIG. 10).

[2] = target: T2, interaction of GST-Bcl-xL and Bak (Homo sapiens, UniProt Q07817); assay: In vitro binding assay: inhibition of GST-Bcl-xL binding to 35S-methionine-labeled Bak; conditions: peptide mixed with GST-Bcl-xL 30 minutes prior to addition to the binding assay
T2 construct: made in house; host or cells: GST-Bcl-xL: E. coli; Bak: rabbit reticulocyte lysate (Promega)
T2 sequence (Q07817 whole entry): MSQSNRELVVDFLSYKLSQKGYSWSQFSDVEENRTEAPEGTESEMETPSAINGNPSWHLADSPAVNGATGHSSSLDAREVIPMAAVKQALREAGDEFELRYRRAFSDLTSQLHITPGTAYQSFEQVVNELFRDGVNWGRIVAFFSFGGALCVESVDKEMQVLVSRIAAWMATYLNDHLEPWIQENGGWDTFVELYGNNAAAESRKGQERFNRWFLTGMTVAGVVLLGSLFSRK
Procedure: An in vitro binding assay as described herein in Example A.3. was used to measure the inhibition of GST-Bcl-xL binding to in vitro translated ^35Met-labeled Bak by a 20-amino acid peptide derived from the Bak GD domain (70-89; […] [SEQ ID NO: 36]). The peptide was mixed with the GST-Bcl-xL protein 30 minutes prior to addition to the binding assay. The concentration of peptide in the binding assay is indicated. Control assay contains no peptide.
The beads were removed by centrifugation and the supernatants were incubated with GST or GST-Bcl-xL (final concentration […]) at 4° C. for 1 hour. The GST fusion proteins and any interacting proteins were recovered by incubation for 1 hour with an additional […] of GSH-agarose beads. The beads were washed twice with NP-40 lysis buffer followed by two washes with NP-40 lysis buffer without NP-40. Proteins were eluted from the beads by incubation in SDS-PAGE sample buffer at 100° C. for 5 min and loaded onto 4-20% SDS-polyacrylamide gels. Following electrophoresis, gels were fixed and incubated in a fluorography enhancing solution (Amplify; Amersham). […]
GST-Bcl-xL, or GST-Bcl-2 is incubated with a labeled GD domain-containing protein in the presence of a test compound. Resulting protein complexes are captured on GSH-agarose beads and the amount of labeled interacting protein is measured. […]

T1 sequence (Q07817 whole entry, the tested form may be a part): as the sequence (Q07817 whole entry) above

## TMGQVGRQLAIIGDDINRRY [Bak peptide, Bak GD domain peptide, amino acid residues 70-89]
[1]
  inhibition of Bcl-xL/Bak GD domain binding: concentration-dependent inhibition of binding
[2]
  inhibition of the interaction of GST-Bcl-xL and 35S-methionine-labeled Bak: inhibition of the interaction
